In general, stoichiometry N refers to a count of units in the complex or per binding partner.

Assay [1] has as its target RSV prefusion F trimer (competition assays) (human respiratory syncytial virus A, …, UniProt P03420, stabilised). Kind of assay: ELISA. (In general: An ELISA detects its analyte on a solid surface through an enzyme-linked reagent.)
A further assay addresses hMPV-F A1(NL/1/00) (human metapneumovirus A1, strain NL/1/00, UniProt Q91F55, stabilised). Briefly: ELISA.
The next assay deals with RSV-F A2 (DS-Cav-1) (Human respiratory syncytial virus A, …, UniProt P03420, stabilised). Briefly: ELISA.
The next assay concerns the target T1, hMPV F-DS-CavEs2-IPDS (human metapneumovirus (strain not …, N-linked glycan at Asn172 (partially modelled))).
T1 chain: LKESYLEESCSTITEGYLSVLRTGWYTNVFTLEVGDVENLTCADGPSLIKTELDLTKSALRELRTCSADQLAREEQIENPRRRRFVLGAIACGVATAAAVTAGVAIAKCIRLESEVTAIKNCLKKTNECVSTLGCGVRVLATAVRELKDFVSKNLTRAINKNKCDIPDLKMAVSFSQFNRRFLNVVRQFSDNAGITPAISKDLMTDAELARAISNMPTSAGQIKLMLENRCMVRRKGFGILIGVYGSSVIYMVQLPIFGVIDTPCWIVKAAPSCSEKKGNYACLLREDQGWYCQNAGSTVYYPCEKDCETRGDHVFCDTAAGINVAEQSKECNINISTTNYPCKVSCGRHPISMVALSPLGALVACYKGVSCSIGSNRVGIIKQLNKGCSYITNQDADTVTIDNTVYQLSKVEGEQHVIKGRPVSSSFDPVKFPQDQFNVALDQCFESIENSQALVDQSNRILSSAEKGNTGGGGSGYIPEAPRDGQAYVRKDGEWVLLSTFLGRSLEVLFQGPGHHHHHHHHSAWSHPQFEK
Briefly: cryo-EM structure.

B1: RM 5-1 (antibody, V domains shown)
VH: QGQLVQSGPEVKKPGATVKVSCRASAYPFGNYGITWVRQVPGQGLEWVGWISAYTGHTKFPQNFQGRVTLTADTSTSTGYMELRSLTSDDTAVYYCARGPCCSSPRPYDIWGQGTMVTVSS
VL: DIQMTQSPSTLSASVGDRVTITCRASQSIDDWLAWYQHSPGKAPKLLIYRASRLESGVPSRFSGSGSGTEFTLTISSLQPDDFASYYCQQCYTYSQTFGQGTRVEIK
Consider B1, for which the binding result (in assay [1]; with hMPV-F A1(NL/1/00); in the assay with RSV-F A2 (DS-Cav-1)) was “binds” each time.

B2: RM 5-1 Fab (Fab, V domains shown)
VH: QGQLVQSGPEVKKPGATVKVSCRASAYPFGNYGITWVRQVPGQGLEWVGWISAYTGHTKFPQNFQGRVTLTADTSTSTGYMELRSLTSDDTAVYYCARGPCCSSPRPYDIWGQGTMVTVSS
VL: DIQMTQSPSTLSASVGDRVTITCRASQSIDDWLAWYQHSPGKAPKLLIYRASRLESGVPSRFSGSGSGTEFTLTISSLQPDDFASYYCQQCYTYSQTFGQGTRVEIK
As for B2, the “stoichiometry N” value with hMPV F-DS-CavEs2-IPDS came out at 3 Fabs per trimer.

The record behind these values is publication PMC12923946 (Cell Reports Medicine, 2026).
